Data reported in patent publication US20220119492A1 (MEDIKINE, published 2022).
Bridge positions count the residues as written; N and C are the ends. Ends that are not written are not given here.

T1: human IL-2Rβ (CD122 protein, Fc Tag) (27-239) (human, UniProt P14784 27-239)
T1 construct: range 27-239; Bought protein; also called hu-IL-2Rβ subunit; IL-2Rβ subunit; not shown: Fc tag of the bought protein
T1 sequence (looked up): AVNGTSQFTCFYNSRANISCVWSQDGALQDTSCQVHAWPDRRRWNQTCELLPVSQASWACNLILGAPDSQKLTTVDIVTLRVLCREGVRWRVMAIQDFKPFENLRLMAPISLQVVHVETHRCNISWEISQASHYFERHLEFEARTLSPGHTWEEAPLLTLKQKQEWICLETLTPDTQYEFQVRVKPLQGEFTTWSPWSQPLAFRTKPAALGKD


target: T1, human IL-2Rβ (CD122 protein, Fc Tag) …; experiment: phage ELISA competition
In short: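 Test ligands and a phage tracer competed for human IL-2Rβ-Fc in a binding ELISA, with IC50 obtained from the absorbance readings of the ligand dilution series. Without washing, 50 μL of phage tracer went on for 45 min at 4° C, and bound phage was developed with TMB for 1 to 15 min at 25° C before stop solution and absorbance at 450 nm.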

IC50, < 100 µM:
WKPCWLAQLGDLCEME [SEQ ID NO 2587], QKGFLPCWRAQLGQLCDMESQY [SEQ ID NO 2637], WLPCWMAQLGELCVME [SEQ ID NO 2589], TVGQFEWYPCSTAQLGELCDLD [SEQ ID NO 2605], WTPCWIAHLGDLCDLEPQDDTD (disulfide 4-13 (inferred)) [SEQ ID NO 2628], SWPCWMAQLGDLCDLDGSAGAS [SEQ ID NO 2622], SLPCWMAQLGDLCELH (disulfide 4-13 (inferred)) [SEQ ID NO 2583], WYPCYMASLGELCDLQSSISPR [SEQ ID NO 2634], WSPCWIATLGELCDLD [SEQ ID NO 2595], WDVHAIRNPCWLAKLGDLCDLD [SEQ ID NO 2599], YWPCSMASLGELCDLEWQGRLP [SEQ ID NO 2633], SNPCWMAQLWELCDLE [SEQ ID NO 2584], WLPCWMAKLGDLCELE [SEQ ID NO 2588], WLSPPSYLPCWMAQLGELCDLV [SEQ ID NO 2598], SKPCWMAQLGELCDLDVWNLQM [SEQ ID NO 2620], WYSCGKAQLGELCDLDVESQPG [SEQ ID NO 2624], WKPCWLAQLGELCDLERPSTTS [SEQ ID NO 2623], FFPCWMGQLGDLCDLEVRSMQK [SEQ ID NO 2632], WYPCWIAQLGEVCDLEKQTGSV (disulfide 4-13 (inferred)) [SEQ ID NO 2611], WKPCWMAALGELCDLERSVGKV [SEQ ID NO 2630], WKPCFIASLGELCDLDQGSVEV [SEQ ID NO 2629], WRVTASLQPCWMAQLGELCDLN [SEQ ID NO 2603], YKPCWIAQLGELCELE [SEQ ID NO 2585], GAGVLHRWPCWMAKLGDLCDLD [SEQ ID NO 2600], WKPCWRAQLGELCDLELGPSER [SEQ ID NO 2631], VRAWYPCWIARLGELCDLEVD (disulfide 7-16 (inferred)) [SEQ ID NO 2580], GYPCWLAQLGDYCDLDAGAPSW [SEQ ID NO 2621], WFPCWMAQLGEVCDLD [SEQ ID NO 2581], SLPCWIARLGELCDLDGYDGEE [SEQ ID NO 2616], YRRERVEFPCWLAQLGELCDKE [SEQ ID NO 2608], MGSWLPCWMAQLGDLCDVEGGM [SEQ ID NO 2636], WYPCWMAHLGDVCDLESFGQTE [SEQ ID NO 2612], WWPCSSAELGEICDFD [SEQ ID NO 2593], WLPCWLAHLGDICDLQ [SEQ ID NO 2597], GQVVETSLPCWEAQLGELCVLD [SEQ ID NO 2604], WQPCWRAKLGELCDLE (disulfide 4-13 (inferred)) [SEQ ID NO 2594], LHPCWMAQLGELCDLE [SEQ ID NO 2590], DTGRDGWKPCWMALLGELCELE (disulfide 10-19 (inferred)) [SEQ ID NO 2601], RLPCWRAQLGDLCELDWGLDMG [SEQ ID NO 2619], GSGWQPCWMADLGELCDLDNEK [SEQ ID NO 2638], WNPCWIAQLGDLCDMV [SEQ ID NO 2596], AVSHGNWLPCYIAQLGELCDLD [SEQ ID NO 2609], SKPCWLAQLGDLCDFDWTAADH [SEQ ID NO 2626], WFPCWMAQLGDLCELEPDSVPA [SEQ ID NO 2627], WKPCWIADLGELCDLAPAWHEY [SEQ ID NO 2618], FKPCWIANLGELCDMDDERSSE [SEQ ID NO 2614], YKPCQMAQLGELCDLDVDNKAE [SEQ ID NO 2613], WYPCHMAKLRELCDLD [SEQ ID NO 2582], FYPCWKARLGELCELEELRGYY [SEQ ID NO 2617], WYPCWMAQLGELCDHEWPSYGA [SEQ ID NO 2635], WKPCWMAGLGELCELD [SEQ ID NO 2592], YVPCYMARLGELCELEANRPGQ [SEQ ID NO 2625], EQGMLGYFPCWKALLGDVCDLD [SEQ ID NO 2602], WKPCWMARLGELCDIEDTKVNA [SEQ ID NO 2615], WQPCWMAQLGELCDLE [SEQ ID NO 2586], ALVGGTFYPCYVAHLGELCDIE [SEQ ID NO 2606], IDRADGWKPCWIAQVGELCVLE [SEQ ID NO 2607], IPKGESWFPCWMAAMGELCDLE [SEQ ID NO 2610], SLPCWMAQLGELCDLV [SEQ ID NO 2591]
